From US20040023887A1 (published 2004)

B1: 20E2A-4-G11-IGFR (peptide)
peptide: MNVFVSFYDAIDQLVCQRIGC
notes: library tags and phage coat protein not included
B2: B6Hα-3-E5-IR (peptide)
peptide: RCGDEEGWQENRRDDPFYHKLSELFGGC
notes: as for B1
B3: B6Hα-1-B3-IR (peptide)
peptide: GCITAENGAGDPFYHKLSELGGCS
notes: as for B1
B4: 20E2Bβ-3-C7-IR (peptide)
peptide: QSGSGDFYDWLSRLIRGNGDG
notes: as for B1
B5: 20E2A-3-A3-IGFR (peptide)
peptide: GHYFGSFYDAIDQLVAGMLPG
notes: as for B1
B6: B6Hα-3-E6-IR (peptide)
peptide: CGAKMTGTPNDPFYHKLSELLQRG
notes: as for B1
B7: 20E2A-3-A4-IGFR (peptide)
peptide: AGSVTSFYDAMEQLVATGTSA
notes: as for B1
B8: B6Hα-2-D8-IR (peptide)
peptide: SSETAKMVTGTRDDPFYHKLSELVQGS
notes: as for B1
B9: B6Hα-3-F7-IR (peptide)
peptide: SRVAATKEKRPSDDPFYHKLSELLQGS
notes: as for B1

How the values were obtained:
[1] = target: T1, soluble IGF-1R (recombinant human IGF-1R extracellular domain, R&D Systems Cat. # 391-GR/CF) (human, UniProt P08069 31-935); assay: phage ELISA
T1 construct: extracellular domain; Bought protein; coated on plates (phage ELISA, TRF) or Eu-labelled (TR-FRET); also called sIGF-1R; rhIGF-1R

[2] = target: T2, soluble human insulin receptor-immunoglobulin heavy chain chimera (human, UniProt P06213 28-956, limits assumed); assay: phage ELISA
T2 construct: extracellular domain; also called sIR-Fc; IR (prepared according to Bass et al., 1996); not shown: immunoglobulin heavy chain constant domains (Bass et al., 1996)

[3] = target: T3, Insulin receptor prepared according to Bass et al., 1996 (soluble IR-immunoglobulin chimera) (human, UniProt P06213 28-956); assay: phage ELISA, receptor coated on plate; A405 over non-fat milk
T3 construct: extracellular domain; also called sIR-Fc; soluble IR (Bass construct); not shown: immunoglobulin constant domains replacing the transmembrane and intracellular domains

[4] = target: T4, Soluble IGF-1R (R&D Systems, Cat. # 391-GR/CF) (human, UniProt P08069 31-935); assay: as above
T4 construct: extracellular domain; the precursor is cleaved into alpha and beta subunits; also called sIGF-1R

| Binder | ratio over background [1] [ratio] | ratio over background [2] [ratio] | ratio over background (IR) [3] [fold over background] | ratio over background (IGF-1R) [4] [fold over background] |
| --- | --- | --- | --- | --- |
| APDPSDFQEIFYDWFVRQVSRMPGGG (on phage) [H2CA-1-A3-IGFR] | 3.8 | 0.8 | – | – |
| RQGTGSFYLMLEQLLVGARGP (on phage) [20E2B-4-G11-IGFR] | 4.5 | 0.6 | – | – |
| B1 | – | – | 1.3 | 3.3 |
| FFYRCLSRLLGGQLGSRLGLSCIGD (on phage) [20C-3-E4-IGFR] | 7.7 | 1.3 | – | – |
| MMVVDGFYDALHQLVVAQSLG (on phage) [20E2A-3-D10-IGFR] | 6.9 | 1.8 | – | – |
| NYRRQVFNGNFYDWFDRQVFSLVTPG (on phage) [H2CA-3-D8-IGFR] | 7.2 | 1.8 | – | – |
| B2 | – | – | 1 | 2.9 |
| QAVQPGFHEEFYDWFVRQVSTGVGGG (on phage) [H2CA-4-H4-IGFR] | 4.1 | 1 | – | – |
| LSVALSFYDALGQLVAGEGRW (on phage) [20E2A-3-A12-IGFR] | 4.3 | 1.1 | – | – |
| LRRQAPVEENFYDWFVRQVSGDRVGG (on phage) [H2CA-3-D7-IGFR] | 3 | 0.8 | – | – |
| GCVVEWQKWHGASDPFYHKLSELGGCS (on phage) [B6Hα-3-F10-IR] | 8.8 | 1.9 | – | – |
| SGAKVIVVTGDSGDPFYHKLSELLQGS (on phage) [B6Hα-2-C10-IR] | 5.8 | 1.1 | – | – |
| B3 | – | – | 1.1 | 3.2 |
| SRAKVEAEMPDSGDPFYHKLSELLASG (on phage) [B6Hα-1-A3-IR] | 2.6 | 0.8 | – | – |
| SSIGGGFHENFYDWFSRQLSQSPPLK (on phage) [H2CA-4-F7-IGFR] | 3.2 | 0.8 | – | – |
| AETSVQVGWIRLQSVWPGEHWNTVDPFYHKLSELLRGSGA (on phage) [B6L-4-D7-IR] | 4.8 | 1.4 | – | – |
| GGTKAVAKVGTRDDPFYHKLSELLQGS (on phage) [B6Hα-4-G8-IR] | 6.1 | 1.7 | – | – |
| VGTVAGFYDAIAQLVARASRV (on phage) [20E2A-3-C7-ICFR] | 5.4 | 1.1 | – | – |
| DSVGDNFYQLLESLVGGHGVG (on phage) [20E2B-3-D6-IGFR] | 17.8 | 2.6 | – | – |
| TLRSPTFYDWLEMVLTHGQGG (on phage) [20E2B-1-A8-IGFR] | 4.4 | 0.9 | – | – |
| RCGRELYHSTFYDWFDRQVAGRTCPS (on phage) [H2CA-1-A7-IGFR] | 2.2 | 0.6 | – | – |
| ASSASGFYELLQRLAGLGLEV (on phage) [20E2B-3-C4-IGFR] | 20.4 | 3.3 | – | – |
| GAPVDQLHEDFYDWFVRQVSQAATG (on phage) [H2CA-2-B2-IGFR] | 3.4 | 1 | – | – |
| GCAVVEEAERSRGDPFYHKLSELIQGC (on phage) [B6Hα-3-E7-IR] | 5.6 | 1.3 | – | – |
| B4 | – | – | 1.5 | 3.1 |

| Binder | ratio over background [1] [ratio] | ratio over background [2] [ratio] | ratio over background (IR) [3] [fold over background] | ratio over background (IGF-1R) [4] [fold over background] |
| --- | --- | --- | --- | --- |
| RFDPFYSYFVNLLGASA (on phage) [NNRPγ-4-A7-IR] | 6.3 | 1.3 | – | – |
| B5 | – | – | 1.5 | 3 |
| RCQGTGFYTCIQELIGFGDPD (on phage) [20E2B-4-H9-IGFR] | 5.2 | 0.9 | – | – |
| IIGGFYSYFNSVLRLGT (on phage) [NNRPγ-4-A1-IR] | 10.9 | 1.8 | – | – |
| EGSGFYGYFFSLLGLQG (on phage) [NNRPγ-4-A9-IR] | 10 | 1.4 | – | – |
| B6 | – | – | 1.2 | 2.3 |
| GCEVIVEEGDSADPFYHKLSELCQGS (on phage) [B6Hα-2-D1-IR] | 5.4 | 1.3 | – | – |
| QSPVGSSHEDFYDWFFRQVAQSGAHQ (on phage) [H2CA-3-D6-IGFR] | 9 | 2.2 | – | – |
| GFREGNFYEWFQAQVT (on phage) [E4Dα-4-H2-IR] | 33.9 | 8.2 | – | – |
| RGKTAAVIVGRPADPFYHKLSELLQGG (on phage) [B6Hα-3-E8-IR] | 5.3 | 1.1 | – | – |
| PPLASDLDVQFYGWFVQQVSPPGRGG (on phage) [H2CA-2-B3-IGFR] | 3.8 | 1 | – | – |
| VNQSGSIHENFYDWFERQVSHQRGVR (on phage) [H2CA-4-F10-IGFR] | 5.7 | 1 | – | – |
| B7 | – | – | – | 2.5 |
| SSCDGAGHESFYEWFVRQVSGCRSV (on phage) [H2CA-3-C6-IGFR] | 5.6 | 1.2 | – | – |
| B8 | – | – | 1 | 3 |
| TLDGGSFEEQFYDWFVRQLSYRTNPD (on phage) [H2CA-4-G11-IGFR] | 9.5 | 2.5 | – | – |
| AVRATRFDEAFYDWFVRQISDGQGNK (on phage) [H2CA-4-F6-IGFR] | 7.3 | 1.1 | – | – |
| CCLLCRFQQNFYDWFVCQGISRLRPL (on phage) [H2CA-2-B4-IGFR] | 4.1 | 1.1 | – | – |
| LSSDGQFYRALNLLLQGSAGR (on phage) [20E2B-2-B7-IGFR] | 6.1 | 0.9 | – | – |
| RAGSSDFHEDFYEWFVRQVSLSLKGK (on phage) [H2CA-2-B9-IGFR] | 7 | 1.7 | – | – |
| PAGPCGFYCGLGLLLHGDQSP (on phage) [20E2B-4-H8-IGFR] | 5.3 | 0.9 | – | – |
| GIISQSCPESFYDWFAGQVSDPWWCW (on phage) [H2CA-4-G9-IGFR] | 9.5 | 0.6 | – | – |
| B9 | – | – | 1 | 3.1 |
| FYVQQWGHENFYDWFDRQVSQSGGAG (on phage) [H2CA-4-F1-IGFR] | 3.5 | 0.9 | – | – |
